Source: the DeepSol protein solubility set

assay: soluble on expression in E. coli; label from the status in PepcDB or PDB records

Sequence | soluble on expression in E. coli
MTEALEQPLRRILSYWRNEIKPLLDAETGTLFKQAPIRVTLAFPNRYSVGMASLGYQVIYRMFNQEEGVACERAFLPDDVDAFERTGQALPTVESGRAAGDCELFSISVSFELDLTNIIRLIDVAGMNPLREERDETDPVVMIGGPLTSSNPYPLTPFADIIIIGDGEQIVPVVSEALRESSSREDFYDLIDGVPGVFLPARHVHEPTWATAPKELLPAYSQIVTPHSELSNMFLVEAQRGCPRPCTFCLARTMYGPNRNNQAQELLDVIPDWVEKVGLVGAALSDFPHTKFVGKTLTERGVKLGVSSIRADTVDAELAEILKAGGLRTFTVASDAPSERLRRWLKKGITTEDLLKTAQISRDLGFSGLKVYMMIGLGPENDDDITELISFTKELAGINRIALGISPFVPKRHTPHFADPFAGVQTIEKRLKRIQKELRTTAELRNVSAKWAWVESVIARGGPEVGMAAYQIYRNESIGAWKKALDEVGWQDDFEANTPSIGLPPGQYESKEVSAHAQGLAVLEHHHHHH | soluble
MGSDKIHHHHHHAEKLSDGKVKLGVLTDMTGYYADLAGPGSVVAARMAVEDFGGKVLGKPVELVSADHQLKADVASNIARKWIDEGQVDAIVDLVSSSTAGAVMPVAAEKKRITLLSGPGTTAFTGEKCTRYNVHYTYNNWALANGTGREVVKQGGDSWFFLTADYIFGKSLEEDTTKVVKAAGGKVLGAARYPSPGTTDFSSYLLQAQGSGAKIVGLANAGADTVNSIRQAEEFGVTPKQSLAGLLVFITDVHSLGLEAAKGMYLTTAFYWDLNDETRKWSRRFFQKHGKMPTMVQAGVYSSVMHYLKAVQAAGTDDADAVMAKMRETPVNDFFAKNARIGPDGLLRHDMYLARVKAPKDSKQPWDYYQIVKTIPAAEAFPSVEAQACPLAKR | not soluble
MSLSTPAVQALSHLVRDVTMKSIVLSAFGTMPIVDERPLPVAGPQEILIRMTHASLNPIDRRIAEGFFKDRFEHRFPLTLGIDGAGVVESIGEQVSDFEVGDSVFGRFLHSYVGNGSFSEYVAISADATLLHTPLGVPPALAAALPTAATTALQAVESLGLPPGSVVLIMGATGGVGTFAVQLARAKGYQVLASASTEAAPWLAQLGVEHVFDRTQNVPERLSTGWPAGINGLIDLVNPAPAFAELVSCIAPGGTALSSIWSATADVAAARGVRAVNLEMLPNREDLRTLARQVLSGSLRVVIDKHISLEAVPAVMSQRQAGGARGKTVIDIAEGHHHHHH | soluble
MPHNPIRVVVGPANYFSHPGSFNHLHDFFTDEQLSRAVWIYGKRAIAAAQTKLPPAFGLPGAKHILFRGHCSESDVQQLAAESGDDRSVVIGVGGGALLDTAKALARRLGLPFVAVPTIAATCAAWTPLSVWYNDAGQALHYEIFDDANFMVLVEPEIILNAPQQYLLAGIGDTLAKWYEAVVLAPQPETLPLTVRLGINNAQAIRDVLLNSSEQALSDQQNQQLTQSFCDVVDAIIAGGGMVGGLGDRFTRVAAAHAVHNGLTVLPQTEKFLHGTKVAYGILVQSALLGQDDVLAQLTGAYQRFHLPTTLAELEVDINNQAEIDKVIAHTLRPVESIHYLPVTLTPDTLRAAFKKVESFKA | soluble
MKIVLISGLSGSGKSVALRQMEDSGYFCVDNLPLEMLPALVSYHIERADETELAVSVDVRSGIDIGQAREQIASLRRLGHRVEVLFVEAEESVLVRRFSETRRGHPLSNQDMTLLESLKKEREWLFPLKEIAYCIDTSKMNAQQLRHAVRQWLKVERTGLLVILESFGFKYGVPNNADFMFDMRSLPNPYYDPELRPYTGMDKPVWDYLDGQPLVQEMVDDIERFVTHWLPRLEDESRSYVTVAIGCTGGQHRSVYIVEKLARRLKGRYELLIRHRQAQNLSDR | not soluble
MSLNRFFNRELSWLAFNTRVLNEAKDESLPLLERLKFLAIYDTNLDEFYMIRVAGLKQLYEHKIASKGIDGASPEEQLEKIKHYLAHEIEERELEFQKIQALLFKKGLCITPYNELNLEQKAKAKTYFKEQLYALVLPFKLDSSHTFPPLANLTFALFARIKDKETQIISYALIKLPSFIFRFVELEKGLFVLAEEIVEAHLEELFLEHEILDCMAFRVTCDADIAITEDEAHDYADLMSKSLRKRNQGEIVRLQTQKGSQELLKTLLASLRSFQTHSYKKHKLTGMHIYKSAIMLNLGDLWELVNHSDFKALKSPNFTPKIHPHFNENDLFKSIEKQDLLLFHPYESFEPVIDLIEQAASDPATLSIKMTLYRVGKHSPIVKALIEAASKIQVSVLVELKARFDEESNLHWAKALERAGALVVYGVFKLKVHAKMLLITKKTDNQLRHFTHLSTGNYNPLSAKVYTDVSFFSAKNEIANDIIKLFHSLLTSSATNSALETLFMAPKQIKPKIIELIQNEMNHQQEGYIILKANALVDSEIIEWLYQASQKGVKIDLIIRGICCLKPQVKGLSENIRVYSIVGKYLEHARIYYFKHENIYFSSADLMPRNLERRVELLIPATNPKIAHKLLHILEIQLKDTLKRYELNSKGRYIKVSNPNDPLNSQDYFEKQALKTFEGHHHHHH | soluble
MGEHICFRRNERLATVNPYWRGNPMVRGRFFNRQHRFRPGMGSVLKWRLSPNPQRKEKKTVKWDPKVCYLRSLDAVVGDSLIWLGHNSFFLQLAGKRIMFDPVFGNIPFVKRQSEFPANPDIFTEIDYLLISHDHFDHLDKQSITRLLNNNPQMKLFCGLGTGELIKSWFPEMRVIEAGWYQQLEDEGLKITFLPAQHWSKRSVRDGGQRLWGAFMLQGNGVSLYYSGDTGYSTHFREIPDLFGAPDYALLGIGAYKPRWFMRPNHISPYESLTASEEMHAGITIPMHYGTFDLSDEPLHDPPKVFAAEAKKRKIRVEIPYLGEIVKLSKRK | not soluble
SLNSLASHTFISGSTGTGKSNTVYEILDEVRKHGVKFLVVEPVKGEYKHIFGNDENVSVYGTNPELSDLLRINPFAFPKGIHVLEHLDRLIEIFNVCWPMYAAMPAVLKNAVERAYEDSGWDLLKSINSYGDLYPTFADVTRNIKEIIDSSEYDNENKGAYKGSLLTRLESLTNGINGMIFTNQAITDKELFDENVIIDLSRVGSTETKSLIMGMLVLKLQEYRMTHTDSLNNILKHVTVLEEAHNILKRTSNEQSMEDSNLVGKSVEMIANGIAEMRTYGEGFIIADQAPGLMDMAVIRNTNTKIIMRLPDFSDRELVGKSANL | not soluble
MGSDKIHHHHHHMNTIYNTLRTDKGYKVYEGYLYEITGEECEEALDLVIPKNIVFADTDTCGYTFLLNEDGTVYDDVTFYKFDDKYWLASHKALDSYLDNINFDYTVTDISDEYKMLQIEGRYSGEIAQSFYEYDISTLNFRTLIEMTYKGEKGYLARFGFSGEFGYQFFLPSSIFATFVSDVCEGIAEYGDELDRYLRFEVGQPITDIYQQEEYSLYEIGYSWNLDFTKEEFRGRDSLLEHIRSATVKSVGFSTKEKLASGTPVLFDDQIVGKIFWIADEKDSSENYLGLMIVNQTYAHSGVTFVTEDGQILKTQSSPYCIPESWNKE | not soluble
PGATPMSLGLFSPTILLPDSAREWPPERQRLVLLHEMAHLKHRDLLLGLVGQLGRALHWPNPLAWTGWSKLLQAREAACDETVLAAGEDPETYAHQLLAAAR | not soluble
MKTIHIYTNGRFEEKQSGIVREFPLVLHVNGREIATLISSPHDLRFLVAGFLRNQGFVERAEDFHMLAVCDDFGIANARIRGELPERLKPVLTSGCGTGVTFTLETPKIPPPLALPAITTDAVFRLMEELARRADNYRSHGGIHSAAVGDGEGNLLLFAEDIGRHNTLDRIAGEALFKGIDLAGTILVTSGRVSTEMAAKCARLGIALIASRTSATDMAVKMCDEAGIPLIGYVRGGKFTVYAHHERLAMAPPVGAIHELPLPASAQGRRIPGITGVILAGGQSRRMGSNKALLPYKGGRFIEAIHRQLAEIFDEVLLVTNNPEQYDFLPCRKVADIHPGMGALAGIHAGLHHAANPAAFMVACDMPYLNSDLIRHLATLADPGGVLIPESPAGLEPLHAVYGKGCLAAIETTLLSGERRIVSFFGRTNVNRVNAEQVALFDPDYATFSNINTPVDYYRLRDGERDELDAALGADRIAGLEHHHHHH | not soluble
MIKLENELLLVEMKEAGAELTRIFHKDTKLEYLWNADSTFWGRHSPVLFPTVGRLVEDTYFVDGNPYHLGQHGFARDRDFKVVEHTENAVRFELDADEDSLTIYPYKFKLSIIYTIEKDSVAVSYEVENTDNKRIYFSIGAHPAFNLPLADGTTFEDYYLDFGTEENLETLCLEGPYRSGKIEKVVNEPARYLPLSYDLFKNDALIFEGLKQKEITIKSDKTPHFVKVSFPEFPFVGVWTAKAGTPFLCIEPWYGIADGAGKSVELRDKAGIEHLEPEAVFASEYKITIGLEHHHHHH | not soluble
MSTFSFIIVNNEQVRIHDIQGKSHMSPYNGKKVNNVEGVVTALDKNGFYIEDNQPDNDPATSEGMYVYKKDANVAVGDLIQVDGVVEEYVGPGYAERFETDLTTTEIKASRVVVIAKDQSLPAPIVLGENGVKIPDQIIDNDAFGLFDPNEDAIDFYESIEGMRVTMPTPKVIAPQKNGNLYVTVKNGGDKIVTQYGTPLLDENQLNPERLSVKVPRDYVAKVGDTFTGDITGVVGYDYGSFRISPITELPAVVDGGFKQVGANIQPRLDKLTVATYNIENFSANKKETTDEKVKALAYSIKYNLKMPDIIGVEEMQDNNGSINDLEHHHHHH | not soluble
MVAKIKKFSDSTLSVLNNGERRFYVYCLTDLKKDKILYIGKGCGNRIFEHEWVASRSQDPVSGEIIDRKLKAISKCKKLGRYIISYHLTEVEALAAESALIHFVKSVLGKKLKNKIAGHGPGGISVEELDRRFGFSSLPLNEINPDGLILAIKIHNAFDLDTDEELDYLFDNQDDANLKSRTLGNWVIGKDVASKVKYVIGVHTGLQNAVVSAYEVDGFETMVEETKNGRKQSRYRFRTTSRSEEVLAKLGLQQKCLPELKFGSGGEKAYIRPKTETETEQENIQTTPNPKIKKEKTKSLEHHHHHH | soluble
MSLTETCDRFALIGAGPMGLAMAKVMLEQGIAFDGFELHSDVGGLWDIDGPRSTMYESAHLISSKRMTEFTDFPMEEAVAEYPSHRELKRYFHAFAARYGLRDHYRFGAEVLRCEPLGEPGAGWRVIWRDAEGEHTETYAGVMIANGTLSEPNMPTFQGRFDGELIHSSAYRHPSQFDGKRVLIVGAGNSGCDIAVDAIHHGALCDLSMRRGYYFVPKYVFGKPADTLGGMIKLPMWLKRRVDGMILKWFVGDPQKYGFPKPDYQLYESHPVVNSLVLYHAGHGDLRIRPDIDRFDGRRVIFADGSSEEYDMILAATGYKLFYPFIDRDLLNWQGDAPHLYLNALHPERDDLFVLGMIEASGLGWQGRHEQAEMVARYITGLRRGGAAAAELKAAKSAGFERATGGMNYLKLARMAYYVDKATYRGAVTGWIDRLKRAQSEGHHHHHH | soluble
MGSDKIHHHHHHMFIVSKQTTTEYGTGCFAAPSSSCQSEYNPKVENDAVAHNSISGLRGSLRRNSSNLSSQLTALQETCLADAAQIEINCSTSNAKQAFFVKIEVPTGEQGVLHFSPSSGDISQVFTPIQNGCGHGVWKFVVCTMENGSEIAHSQVSRNLDGVGILFFNVYEDLEIRLAQQEFLHISHCHTRRH | not soluble
MAHHHHHHMQRQVIRRLGNRSAFPLVAAVARSSQIRGAVRGDSGSRARVIPSFMCSLRAYSGGHHEEPSSRSGQYLLDKSDVLTRVLEVVKNFEKVDASKVTPESHFVKDLGLNSLDVVEVVFAIEQEFILDIPDHDAEKIQSIPDAVEYIAQNPMAK | soluble
MMNTNTTNNTVLLFTFNNIQGRGLQTAIEQNLEKPVLLTQGADVNLPSTRDEHYVAIVDSSLPELPEVKQTLSELEHVDATVLVNAEPNLRIESLLTWSNLKGLFYFEDDFDKVMMGLKGILNGENWLSRDILN | not soluble
